Measurements taken from PMC4619679.

Target: Dnmt1 (N-His) (UniProt P13864)
Test: MST
Settings: EMSA: 20 mM Tris pH 7.6, 30 mM KCl, 5 mM EDTA, 1 mM DTT, 5 uM SAM, 20% glycerol, 26 C, MST: 10 mM Tris/Cl, 150 mM KCl, 0.75 mM MgCl2, 0.25 mM EGTA

Chain of UniProt P13864 (P13864 whole entry): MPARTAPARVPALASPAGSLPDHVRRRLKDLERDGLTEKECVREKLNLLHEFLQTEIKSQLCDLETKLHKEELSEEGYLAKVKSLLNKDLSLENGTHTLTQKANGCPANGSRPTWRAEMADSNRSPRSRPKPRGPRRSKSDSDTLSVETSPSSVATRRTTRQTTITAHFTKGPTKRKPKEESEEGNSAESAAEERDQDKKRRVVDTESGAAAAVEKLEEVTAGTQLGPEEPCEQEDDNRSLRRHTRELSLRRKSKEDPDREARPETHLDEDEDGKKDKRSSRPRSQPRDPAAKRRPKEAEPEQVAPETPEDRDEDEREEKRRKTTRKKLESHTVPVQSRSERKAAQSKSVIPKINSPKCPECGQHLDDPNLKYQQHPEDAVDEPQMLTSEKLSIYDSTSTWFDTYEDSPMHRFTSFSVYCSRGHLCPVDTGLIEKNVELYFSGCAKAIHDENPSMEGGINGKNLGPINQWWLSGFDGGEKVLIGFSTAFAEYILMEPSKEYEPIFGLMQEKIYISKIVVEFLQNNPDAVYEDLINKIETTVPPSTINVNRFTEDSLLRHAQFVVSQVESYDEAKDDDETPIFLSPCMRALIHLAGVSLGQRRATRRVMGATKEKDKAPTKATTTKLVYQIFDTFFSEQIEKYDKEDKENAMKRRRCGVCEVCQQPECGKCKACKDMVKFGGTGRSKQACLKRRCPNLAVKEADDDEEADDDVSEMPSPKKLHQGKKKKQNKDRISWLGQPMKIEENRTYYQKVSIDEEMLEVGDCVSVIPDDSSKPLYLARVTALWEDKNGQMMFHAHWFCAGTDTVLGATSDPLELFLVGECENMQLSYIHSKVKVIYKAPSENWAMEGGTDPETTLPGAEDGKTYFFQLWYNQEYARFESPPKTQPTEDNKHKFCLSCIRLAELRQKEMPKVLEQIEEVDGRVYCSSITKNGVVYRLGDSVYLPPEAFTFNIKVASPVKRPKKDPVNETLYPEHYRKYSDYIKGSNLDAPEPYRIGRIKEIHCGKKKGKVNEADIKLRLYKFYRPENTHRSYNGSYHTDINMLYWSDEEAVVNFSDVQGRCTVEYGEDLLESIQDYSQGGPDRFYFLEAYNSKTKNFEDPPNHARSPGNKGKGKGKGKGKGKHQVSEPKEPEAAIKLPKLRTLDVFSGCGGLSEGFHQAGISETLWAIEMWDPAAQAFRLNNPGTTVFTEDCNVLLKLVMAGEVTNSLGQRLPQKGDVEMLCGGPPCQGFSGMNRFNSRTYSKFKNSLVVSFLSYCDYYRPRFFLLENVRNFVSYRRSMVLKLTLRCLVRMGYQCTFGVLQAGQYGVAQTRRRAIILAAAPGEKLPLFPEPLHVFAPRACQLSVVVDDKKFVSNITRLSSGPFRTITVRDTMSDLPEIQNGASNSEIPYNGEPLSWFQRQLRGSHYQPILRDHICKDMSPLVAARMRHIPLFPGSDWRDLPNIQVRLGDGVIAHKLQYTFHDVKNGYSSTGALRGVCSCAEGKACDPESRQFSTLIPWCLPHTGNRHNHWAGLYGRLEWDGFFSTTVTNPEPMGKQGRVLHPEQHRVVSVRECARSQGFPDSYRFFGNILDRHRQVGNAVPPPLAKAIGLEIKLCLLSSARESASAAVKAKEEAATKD

Sequence | binding signal (fold higher affinity with SAM) (160 uM SAM, 5-methyl-C at Z positions of the lower strand (C5, C12, C18, C20, C29, C33, C40, C42, C49; strand printed only up to TTAGAZG, so the CG in the last 8 nt is unknown)) | K half [nM]
TGCGGAATCGTCTAACGCGTGGAATCGTCCGATTGAGGTCGCGATCTCGAATCACGGTGC (double strand) [AIR60 hemi-methylated 60 bp DNA] | 2 | 
TGCGGAATCGTCTAACGCGTGGAATCGTCCGATTGAGGTCGCGATCTCGAATCACGGTGC (double strand) [AIR60 non-methylated 60 bp DNA] |  | 1500
